Target: FcεRIα subunit of the high-affinity IgE receptor (FcεRI) (human) (UniProt P12319)
Test: cell-based or functional assay

Sequence of FcεRIα subunit of the high-affinity IgE receptor (FcεRI) (human) (P12319 26-257 limits assumed, form in doubt): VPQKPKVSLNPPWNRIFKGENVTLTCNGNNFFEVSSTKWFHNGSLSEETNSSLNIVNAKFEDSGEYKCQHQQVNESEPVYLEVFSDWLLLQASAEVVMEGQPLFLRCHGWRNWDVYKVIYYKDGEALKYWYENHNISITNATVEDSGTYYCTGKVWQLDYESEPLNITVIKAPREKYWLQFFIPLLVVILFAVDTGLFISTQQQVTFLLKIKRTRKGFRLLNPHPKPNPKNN

anti-FcεRIα antibody, clone AER-37 (CRA1)
positive population mean for CD63: 52.7%
positive population mean for CD107a: 71.2%

Source: US20240091164A1
